Assays:
Format in all cases: cell-based, rat
[1] = test system: cardiomyocytes; experiment: Protein synthesis ([3H]phenylalanine incorporation) in cardiomyocytes; conditions: rPMT 400 ng/ml or NE 10 μM, 48 hr, serum-free
Description: rPMT mimics the effect of norepinephrine to promote cardiomyocyte hypertrophy. Cardiomyocytes were cultured in serum-free medium without or with rPMT (400 ng/ml) or norepinephrine (NE, 10 μM) for 48 hr. Cardiomyocytes were fixed, permeabilized, and stained with monoclonal anti-α-actinin sarcomeric (Panel A, magnification×100) or subjected to Northern blot analysis for measurements of steady-state ANF mRNA expression (Panel B). Effects of rPMT (black bars) and NE (gray bars) vs. vehicle (white bars) on sarcomeric organization (Panel C), cell size (Panel D), and protein synthesis (Panel E) are illustrated (n=3 for each).
As a second index of cardiomyocyte growth, relative rates of protein synthesis were measured as radiolabeled phenylalanine incorporation into cell protein. Cells were stimulated in serum-free medium with agonists (or vehicle as control) for 48 hr at 37° C. The medium was replaced with serum-free medium containing [^3H]phenylalanine (0.1 μCi/ml) and non-radioactive phenylalanine (0.3 mM, to minimize variations in the specific activity of the precursor pool responsible for protein synthesis) during the final 24 hr of stimulation. Cells were rinsed with PBS and incubated in 10% trichloroacetic acid for 30 min on ice. […] Aliquots of the SDS-soluble protein were counted in 5 ml of scintillant.

[2] = test system: cardiomyocytes; experiment: TUNEL assay of apoptosis in cardiomyocyte cultures
Description: rPMT increases H2O2-induced apoptosis in cardiomyocyte cultures. Cells were treated without or with rPMT (400 ng/ml) for 24 hr followed by H202 (500 μM) for 24 hr. The percentage of cells undergoing apoptosis was measured by TUNEL assay as described in Methods below. Data are from a single experiment and are representative of results obtained on 3 separate culture preparations.
TUNEL staining was performed for detection of apoptotic cells according to manufacturer's instructions (Boehringer). Approximately 500 cardiomyocytes were imaged by fluorescence microscopy and the number of cells that scored TUNEL-positive is presented as a percentage of total.

[3] = test system: PLC; experiment: Inositol phosphate production (PLC activation) in cardiomyocyte cultures
Description: rPMT activates PLC. Cardiomyocyte cultures were incubated in media containing 3 μCi/ml [^3H] myoinositol for 96 hr, with 400 ng/ml rPMT for the indicated intervals at the end of this interval (Panel A) or the indicated concentration of rPMT included in the culture medium during the final 24 hr of culture (Panel B). This was followed by 30 min in the presence of 10 mM LiCl to inhibit the hydrolysis of inositol phosphate metabolites. Results are expressed as cpm over basal (mean±SEM; n=3) from a single experiment, and are representative of results obtained in 3 separate culture preparations.
Cardiomyocytes grown in six-well plates were labeled with 3 μCi/ml [^3H]myoinositol for 96 hr. Treatment with rPMT was during the final 24 hr of this interval. Cells were washed to remove unincorporated radioisotope and then incubated for an additional 20 min with HEPES-buffered saline containing 10 mM LiCl. Cells were lysed with 1.05 mls of chloroform/methanol/6M HCl (500:1000:3) and harvested, and lipids were extracted for 30 min at room temperature. 1.05 mls of chloroform/water (1:2) were added, and the mixture was vortexed and centrifuged at 2000 g for 5 min to separate the phases. The aqueous phase was transferred to Dowex anion-exchange columns, and inositol phosphates were eluted sequentially according to standard methods as described previously (13).

B1: rPMT: recombinant Pasteurella multocida toxin, a Gαq agonist used as pharmacological probe (protein, UniProt P17452 1-1285, looked up)
Dermonecrotic toxin: MKTKHFFNSDFTVKGKSADEIFRRLCTDHPDKQLNNVKWKEVFINRFGQMMLDTPNPRKIVEKIINEGLEKQGLKNIDPETTYFNIFSSSDSSDGNVFHYNSLSESYRVTDACLMNIFVERYFDDWDLLNSLASNGIYSVGKEGAYYPDHDYGPEYNPVWGPNEQIYHSRVIADILYARSVWDEFKKYFMEYWQKYAQLYTEMLSDTFLAMAIQQYTRQTLTDEGFLMVCNTYYGNKEEVQITLLDIYGYPSTDIICIEQKGLPTPKVILYIPGGTQPFVEFLNTDDLKQWIAWHLKDNKHMVAFRKHFSLKQRQEGETFTGIDKALQYIAEESPEWPANKYILYNPTHLETENLFNIMMKRTEQRMLEDSDVQIRSNSEATRDYALSLLETFISQLSAIDMLVPAVGIPINFALSATALGLSSDIVVNGDSYEKRKYGIGSLVQSALFTGINLIPVISETAEILSSFSRTEEDIPAFFTEEQALAQRFEIVEEELHSISPDDPPREITDENLHKIRLVRLNNENQPLVVLRRLGGNKFIRIEPITFQEIKGSLVSEVINPVTNKTYYVSNAKLLGGSPYSPFRIGLEGVWTPEVLKARASVIGKPIGESYKRILAKLQRIHNSNILDERQGLMHELMELIDLYEESQPSSERLNAFRELRTQLEKALYLPEMEALKKQILQIPNKGSGAARFLLRTAMNEMAGKTSESTADLIRFALQDTVISAPFRGYAGAIPEAIDFPVKYVIEDISVFDKIQTNYWELPAYESWNEGSNSALLPGLLRESQSKGMLSKCRIIENSLYIGHSYEEMFYSISPYSNQVGGPYELYPFTFFSMLQEVQGDLGFEQAFATRNFFNTLVSDRLSLMENTMLLTESFDYTPWDAIYGDINYDEQFAAMSINERIEKCMNTYRGVAFQNSSKSIDFFLNNLTTFIDNGLTEIAISDLPYDIVQQEISQFLQGSNEWKTLDAMLFNLDKGDINGAFRKLLQSAKDNNIKFRAIGHSDNSVPPFNNPYKSLYYKGNIIAEAIEKLDREGQKFVVFADSSLLNSTPGTGRPMPGLVQYLKIPATVVDSDGAWQFLPDVASSRVPIEVTELENWQVLTPPQGKILGLKQFKLTAGFPTEQSRLPLLENSVSEDLREELMQKIDAIKNDVKMNSLVCMEAGSCDSVSPKVAARLKDMGLEAGMGASITWWRREGGMEFSHQMHTTASFKFAGKEFAVDASHLQFVHDQLDTTILILPVDDWALEIAQRNRAINPFVEYVSKTGNMLALFMPPLFTKPRLTRAL
[3H]phenylalanine incorporation (protein synthesis) [1]: enhance [^3H]phenylalanine incorporation | effect on H2O2-induced apoptosis ([2]; rPMT 400 ng/ml 24 hr followed by H2O2 500 μM 24 hr): augmented | number of TUNEL-positive cells ([2]; serum-free conditions for 48 hr): small increase | toxin concentration giving maximal activation of inositol phosphate accumulation ([3]; at 24 hr, batches vary): 400 ng/mL | inositol phosphate accumulation ([3]; cardiomyocytes): promotes inositol phosphate accumulation | time at which the inositol phosphate response is detectable ([3]; cardiomyocytes, 400 ng/ml): 1 h | time at which the inositol phosphate response is maximal ([3]; cardiomyocytes, 400 ng/ml): 48 h
